T1: human CEACAM-5-His-Fc (Sino Biological, 1077-H03H) (human, UniProt P06731 35-685)
T1 construct: not shown: His tag and Fc
T1 sequence (looked up): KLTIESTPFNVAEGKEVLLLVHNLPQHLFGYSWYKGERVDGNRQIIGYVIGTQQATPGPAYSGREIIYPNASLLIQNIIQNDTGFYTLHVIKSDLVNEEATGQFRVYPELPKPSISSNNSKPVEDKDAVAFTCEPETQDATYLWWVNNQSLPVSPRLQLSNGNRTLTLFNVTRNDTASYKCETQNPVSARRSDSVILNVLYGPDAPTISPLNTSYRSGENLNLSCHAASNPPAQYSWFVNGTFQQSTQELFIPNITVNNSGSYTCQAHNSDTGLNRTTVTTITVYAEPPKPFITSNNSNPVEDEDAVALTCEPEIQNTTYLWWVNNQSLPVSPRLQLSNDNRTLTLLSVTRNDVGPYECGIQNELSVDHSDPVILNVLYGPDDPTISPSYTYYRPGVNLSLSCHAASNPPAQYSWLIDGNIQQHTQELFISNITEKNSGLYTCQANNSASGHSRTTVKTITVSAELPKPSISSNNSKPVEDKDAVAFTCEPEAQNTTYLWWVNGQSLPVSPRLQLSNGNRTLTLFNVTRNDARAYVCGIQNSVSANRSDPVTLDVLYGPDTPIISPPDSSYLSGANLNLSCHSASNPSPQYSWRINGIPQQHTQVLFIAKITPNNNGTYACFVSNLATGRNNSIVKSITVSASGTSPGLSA

T2: human E-Cadherin (R&D systems, 8505-EC) (human, UniProt P12830 155-707)
T2 sequence (looked up): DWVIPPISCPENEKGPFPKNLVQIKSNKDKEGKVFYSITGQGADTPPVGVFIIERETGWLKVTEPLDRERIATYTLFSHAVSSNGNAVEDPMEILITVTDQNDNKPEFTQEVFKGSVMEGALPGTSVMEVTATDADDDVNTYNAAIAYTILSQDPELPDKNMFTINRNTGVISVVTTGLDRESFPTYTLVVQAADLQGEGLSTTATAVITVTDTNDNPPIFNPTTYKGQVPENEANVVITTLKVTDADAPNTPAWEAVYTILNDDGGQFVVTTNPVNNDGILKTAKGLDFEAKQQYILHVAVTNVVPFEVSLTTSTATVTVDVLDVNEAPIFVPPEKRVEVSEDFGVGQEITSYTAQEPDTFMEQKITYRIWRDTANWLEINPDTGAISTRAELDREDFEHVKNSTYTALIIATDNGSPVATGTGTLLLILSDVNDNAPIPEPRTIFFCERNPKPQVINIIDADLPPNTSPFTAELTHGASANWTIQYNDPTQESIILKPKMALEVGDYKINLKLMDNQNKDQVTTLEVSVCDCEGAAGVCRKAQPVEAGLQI

T3: human EpCAM-hFc (in-house production) (human, UniProt P16422 24-265, limits assumed)
T3 construct: not shown: human Fc
T3 sequence (looked up): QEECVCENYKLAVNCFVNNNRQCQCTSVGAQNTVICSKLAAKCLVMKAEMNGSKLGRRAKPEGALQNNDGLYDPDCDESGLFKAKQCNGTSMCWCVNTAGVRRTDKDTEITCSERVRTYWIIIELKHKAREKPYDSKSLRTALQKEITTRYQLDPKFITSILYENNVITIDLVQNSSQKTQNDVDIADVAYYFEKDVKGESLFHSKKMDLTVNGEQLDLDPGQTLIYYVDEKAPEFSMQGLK


Tests used:
human MSLN-His-Avi [1] = biological target: T4, human MSLN-His-Avi (human, UniProt Q13421 296-598, single biotin (BirA) in the biotinylated form); experiment: SPR as Example 4.1 (about 40 RU instead of 100), MSLN in solution
T4 construct: Monomeric, made in HEK293-6E; Used both immobilised and in solution; also called hMSLN-His-Avi; biotinylated hMSLN-His-Avi
T4 sequence (Q13421 other isoform, or with tags, fused parts or gaps): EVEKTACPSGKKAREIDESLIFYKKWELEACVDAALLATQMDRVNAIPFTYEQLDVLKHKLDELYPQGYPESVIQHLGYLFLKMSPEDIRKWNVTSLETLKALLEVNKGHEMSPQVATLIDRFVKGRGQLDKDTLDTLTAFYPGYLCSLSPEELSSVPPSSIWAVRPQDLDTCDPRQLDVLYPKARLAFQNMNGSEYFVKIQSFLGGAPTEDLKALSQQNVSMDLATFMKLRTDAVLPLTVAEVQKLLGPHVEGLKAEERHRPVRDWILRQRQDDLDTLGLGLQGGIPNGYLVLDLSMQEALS

human MSLN-His-Avi [2] = biological target: T4, human MSLN-His-Avi; experiment: ratio of the two SPR KD
human MSLN-His-Avi [3] = biological target: T4, human MSLN-His-Avi; experiment: SPR as Example 4.1 (about 40 RU instead of 100), MSLN immobilised
human MSLN-His-Avi [4] = biological target: T4, human MSLN-His-Avi; experiment: SPR (Biacore), hMSLN-His-Avi immobilised at 50 RU, mAb injected
Description: (§1) Human MSLN-His-Avi was immobilised on flow cell 2 on a CM5 Series S BIAcore sensor chip (GE Healthcare, BR100530) using an amine coupling kit (GE Healthcare, BR10050) to approximately 200 response units (RU). Flow cell 1 was left blank for subtraction. HEK293-6E supernatants or purified proteins were adjusted with HBS-EP+(GE Healthcare) to approximately 50 nM anti-MSLN mAb per sample. Samples were injected over flow cell 1 and 2 for 2.5 min at 30 μl/min and then allowed to dissociate in HBS-EP buffer for 2.5 min. Regeneration was achieved by injecting 10 mM glycine pH 1.5 (GE Healthcare, BR100354) for 30 seconds at a rate of 30 μl/min. Subtracted data (flow cell 2−flow cell 1) were analysed using BIAevaluation 3.2 Software (GE Healthcare).
(§2) For each bin described in 2.1.3, the binding kinetics were determined using the same method as described in section 2.1.2, except that human or cyno MSLN-His-Avi was immobilised at 50 or 100 RU. Clones were tested at a concentration range of 81 nM to 0.33 nM in 3-fold dilutions.

human MSLN-His-Avi [5] = biological target: T4, human MSLN-His-Avi; experiment: SPR (Biacore), hMSLN-His-Avi immobilised at 100 RU, mAb injected
Description: as §1, §2

[6] = biological target: T5, cell surface human mesothelin (MSLN) (human, UniProt Q13421 296-598); experiment: flow cytometry, NCI-H226 cells (n = 3)
T5 construct: whole, on cells; also called cell surface MSLN
T5 sequence (Q13421 other isoform, or with tags, fused parts or gaps limits assumed): as the sequence (Q13421 other isoform, or with tags, fused parts or gaps) above
Description: Briefly, NCI-H226 cells (ATCC CRL-5826) were harvested from T175 cell culture flasks using StemPro Accutase (Gibco, A11105-01). Cells were centrifuged at 1200 rpm for 3 min and resuspended in ice cold FACS buffer made up of DPBS (Life Technologies, 14190169) and 1% BSA (Sigma-Aldrich, A7906) at 2×10⁶ cells/ml and 50 μl per well was seeded in a 96-well V-bottom plate (Costar, 3894). All mAbs tested were diluted in FACS buffer in 120 μl at a concentration range of 0.01-200 nM (4-fold dilutions). The NCI-H226 cells were then centrifuged, supernatant removed and cells resuspended in 100 μl of each mAb dilution and incubated at 4° C. for 45 min. Cells were washed twice by centrifugation with 150 μl FACS buffer, resuspended in 100 μl containing goat anti-human IgG (γ-chain specific) F(ab′)2 fragment-R-Phycoerythrin antibody (Sigma, P8047) diluted 1:1000 in FACS buffer and incubated at 4° C. for 45 min. The cells were washed once with 150 μl FACS buffer and then with 150 μl DPBS, resuspended in 150 μl DPBS containing DAPI (Biotium, 40043) at 1:10.000 and read on the BDCantoll or iQue (Intellicyt). Data was analysed using FlowJo v10 to determine the signal geometric mean for PE for live cells in each well.

human MSLN-His-Avi [7] = biological target: T4, human MSLN-His-Avi; experiment: ELISA, hMSLN-His-Avi coated at 1 ug/ml
[8] = biological target: T1, human CEACAM-5-His-Fc (Sino Biological, …); experiment: ELISA, antigen coated at 1 ug/ml
Description: (§3) A similar protocol was used as described in section 1.2.1 in which maxisorp plates were coated with 1 μg/ml of recombinant human MSLN-His-Avi, human CEACAM-5-His-Fc (Sino Biological, 1077-H03H), human E-Cadherin (R&D systems, 8505-EC), human Thrombomodulin (Peprotech, 100-58) or human EpCAM-hFc (in-house production). Binding of the anti-MSLN mAbs, tested at a concentration range of 0.02 to 1000 nM (3-fold dilutions) was detected using anti-human Fab-HRP (Sigma, A0293). Positive controls for the respective molecules included human EpCAM antibody (clone 2G8 from patent no. U.S. Pat. No. 8,236,308 B2) CEACAM-5 antibody (clone hMN15 from patent no. U.S. Pat. No. 8,771,690 B2), human E-Cadherin antibody, mouse IgG2b clone 180215 (R&D systems, MAB1838), human Thrombomodulin antibody, mouse IgG1, clone 501733 (R&D systems, MAB3947). The latter two were detected using goat anti mouse Fc-HRP (Sigma, A9309) as secondary mAb.

[9] = biological target: T2, human E-Cadherin (R&D systems, 8505-EC); experiment: ELISA, antigen coated at 1 ug/ml
Description: as §3

[10] = biological target: T3, human EpCAM-hFc (in-house production); experiment: ELISA, antigen coated at 1 ug/ml
Description: as §3

[11] = biological target: human Thrombomodulin (Peprotech, 100-58) (human, UniProt P07204 19-515); experiment: ELISA, antigen coated at 1 ug/ml
Chain of human Thrombomodulin (Peprotech, 100-58) (P07204 19-515 limits assumed): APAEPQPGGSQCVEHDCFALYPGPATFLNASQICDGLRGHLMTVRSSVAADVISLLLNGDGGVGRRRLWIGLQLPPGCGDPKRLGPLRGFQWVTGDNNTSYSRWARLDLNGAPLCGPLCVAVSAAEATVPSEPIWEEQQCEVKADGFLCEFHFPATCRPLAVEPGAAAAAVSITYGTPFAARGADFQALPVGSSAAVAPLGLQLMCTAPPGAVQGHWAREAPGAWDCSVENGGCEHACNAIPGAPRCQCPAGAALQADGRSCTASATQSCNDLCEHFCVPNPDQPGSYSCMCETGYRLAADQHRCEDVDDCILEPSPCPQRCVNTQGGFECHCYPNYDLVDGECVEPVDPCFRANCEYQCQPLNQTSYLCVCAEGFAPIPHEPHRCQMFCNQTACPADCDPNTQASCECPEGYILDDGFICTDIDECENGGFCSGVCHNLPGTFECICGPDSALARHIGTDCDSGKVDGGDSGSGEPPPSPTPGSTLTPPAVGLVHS
Description: as §3

Kd (human MSLN-His-Avi [1]) [nM] | Ratio of KD in solution/immobilised for human MSLN-His-Avi (human MSLN-His-Avi [2]) | Kd (human MSLN-His-Avi [3]) [nM] | Kd (human MSLN-His-Avi [4]) [nM] | Kd (human MSLN-His-Avi [5]) [nM] | EC50 [6] [nM] | Emax (MFI signal) [6] [MFI] | other results | Binder
55.9 | 2.8 | 19.8 |  |  |  |  |  | FS28-256-274 (in CD137 mAb^2 format) (bispecific antibody, V domains shown) VH: EVQLLESGGGLVQPGGSLRLSCAASGFTFTHTYMSWVRQAPGKGLEWVSTISPTYSTTNYADSVKGRFTISRDNNKNTLYLQMNSLRAEDTAVYYCARYNAYHAALDYWGQGTLVTVSS VL: EIVLTQSPGTLSLSPGERATLSCRASQSVSSSYLAWYQQKPGQAPRLLIYGASSRATGIPDRFSGSGSGTDFTLTISRLEPEDFAVYYCQQTVPYPYTFGQGTKVEIK
 |  |  | 26.2 | 23.2 | 33.1 | 4250 |  | G1-AA/FS28-256 (antibody, human IgG1, kappa, L234A L235A, V domains shown, IgG1 LALA) VH: EVQLLESGGGLVQPGGSLRLSCAASGFTFTNTYMSWVRQAPGKGLEWVSNISPTYSTTNYADSVKGRFTISRDNSKNTLYLQMNSLRAEDTAVYYCARYNSYQGGLDYWGQGTLVTVSS VL: EIVLTQSPGTLSLSPGERATLSCRASQSVSSSYLAWYQQKPGQAPRLLIYGASSRATGIPDRFSGSGSGTDFTLTISRLEPEDFAVYYCQQSYYYPITFGQGTKVEIKR
7.6 | 0.7 | 10.7 |  |  |  |  |  | FS28-256-272 (in CD137 mAb^2 format) (bispecific antibody, V domains shown, Position 55 is IMGT numbering, not the count on the entry) VH: EVQLLESGGGLVQPGGSLRLSCAASGFTFTHTYMSWVRQAPGKGLEWVSHISPTYSTTNYADSVKGRFTISRDNNKNTLYLQMNSLRAEDTAVYYCARYNAYHAALDYWGQGTLVTVSS VL: EIVLTQSPGTLSLSPGERATLSCRASQSVSSSYLAWYQQKPGQAPRLLIYGASSRATGIPDRFSGSGSGTDFTLTISRLEPEDFAVYYCQQTVPYPYTFGQGTKVEIK
3.2 | 0.68 | 4.7 |  |  |  |  |  | FS28-256-027 (in CD137 mAb^2 format, Table 6) (bispecific antibody, V domains shown) VH: EVQLLESGGGLVQPGGSLRLSCAASGFTFTHTYMSWVRQAPGKGLEWVSNISPTYSTTNYADSVKGRFTISRDNNKNTLYLQMNSLRAEDTAVYYCARYNAYHAALDYWGQGTLVTVSS VL: EIVLTQSPGTLSLSPGERATLSCRASQSVSSSYLAWYQQKPGQAPRLLIYGASSRATGIPDRFSGSGSGTDFTLTISRLEPEDFAVYYCQQTVPYPYTFGQGTKVEIK
7.4 | 1.2 | 6 |  |  |  |  |  | FS28-256-273 (in CD137 mAb^2 format) (bispecific antibody, V domains shown) VH: EVQLLESGGGLVQPGGSLRLSCAASGFTFTHTYMSWVRQAPGKGLEWVSSISPTYSTTNYADSVKGRFTISRDNNKNTLYLQMNSLRAEDTAVYYCARYNAYHAALDYWGQGTLVTVSS VL: EIVLTQSPGTLSLSPGERATLSCRASQSVSSSYLAWYQQKPGQAPRLLIYGASSRATGIPDRFSGSGSGTDFTLTISRLEPEDFAVYYCQQTVPYPYTFGQGTKVEIK
 |  |  | 37 | 29.6 | 37.5 | 2440 | EC50 (human MSLN-His-Avi [7]): ~0.5 nM; maximum binding signal (human MSLN-His-Avi [7]): 3; binding result [8]: no binding (tested: 1000 nM); binding result [9]: no binding (tested: 1000 nM); binding result [10]: no binding (tested: 1000 nM); binding result [11]: no binding (tested: 1000 nM) | G1-AA/FS28-185 (antibody, human IgG1, kappa, L234A L235A, V domains shown, IgG1 LALA) VH: EVQLLESGGGLVQPGGSLRLSCAASGFTFTTSAMSWVRQAPGKGLEWVSRINPYEGETNYADSVKGRFTISRDNSKNTLYLQMNSLRAEDTAVYYCARGWSIATYYKSAMDYWGQGTLVTVSS VL: EIVLTQSPGTLSLSPGERATLSCRASQSVSSSYLAWYQQKPGQAPRLLIYGASSRATGIPDRFSGSGSGTDFTLTISRLEPEDFAVYYCQQSSYSAPVTFGQGTKVEIKR
